In test [1] the target is LeishIF4E-3-SBP.
The target of test [2] is LeishIF4E-1-SBP.

Experimental findings from publication PMC7192595 are described below.

Consider “MBP-Leish4E-IP2_(1-134) (domain or fragment)”, for which the reduction of the binding of SBP-LeishIF4E-3 (cell lysate) to m7GTP-agarose by 0, 5, 10, 20 ug MBP-Leish4E-IP2 (1-134) per 300 ul, densitometry of anti-SBP blots; 60% at 5 ug in test [1] stood at 96%. Also, in test [2], the reduction of the binding of SBP-LeishIF4E-1 (cell lysate) to m7GTP-agarose by 0, 5, 10, 20 ug MBP-Leish4E-IP2 (1-134) per 300 ul, densitometry of anti-SBP blots; 13% at 5 ug; MBP alone had no effect came out at 42%.
